# Results as given in patent US20130086703.
# Tested on: full-length human Keratin 6
substance,measurement,value
Kgp,enzymatic degradation products detected by mass spectrometry (on spot profiling),peptides consisting of the amino acid sequences shown by SEQ ID NOs: 4 and 5 (peptides 6 and 7) were newly identified as Kgp degradation products of human Keratin 6
